Data as given in patent US20240400670A1 (JIANGSU HENGRUI PHARMACEUTICALS, published 2024).
Like-named read-outs stand apart in the source and are kept apart here. Each block holds one binder with its values, some of them ahead of it.

Assays:
[1] = biological target: T1, human IL-23 (Sino Biological, CT048-H08H) (human, UniProt Q9NPF7 20-189; P29460 23-328); experiment: cell-based or functional assay
T1 sequence (looked up) 1: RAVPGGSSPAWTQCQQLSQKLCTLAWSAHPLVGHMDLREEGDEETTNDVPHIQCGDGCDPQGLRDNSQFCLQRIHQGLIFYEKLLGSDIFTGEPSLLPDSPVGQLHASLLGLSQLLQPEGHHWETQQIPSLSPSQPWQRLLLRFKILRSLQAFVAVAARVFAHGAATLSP
T1 sequence (looked up) 2: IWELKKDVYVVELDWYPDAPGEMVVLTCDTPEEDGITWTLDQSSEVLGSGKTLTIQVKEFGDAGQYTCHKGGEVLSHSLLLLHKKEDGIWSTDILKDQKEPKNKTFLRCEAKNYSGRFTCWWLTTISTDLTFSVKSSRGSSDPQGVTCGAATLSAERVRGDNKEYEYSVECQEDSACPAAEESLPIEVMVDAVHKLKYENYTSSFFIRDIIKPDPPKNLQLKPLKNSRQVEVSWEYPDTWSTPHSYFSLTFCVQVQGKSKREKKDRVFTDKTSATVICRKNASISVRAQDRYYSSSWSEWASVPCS

[2] = biological target: T2, mouse IL-23 (R&D Systems, 1887-ML/CF) (mouse, UniProt Q9EQ14 22-196; P43432 23-335); experiment: SPR (Biacore), Protein A capture of sample
T2 construct: also called Mouse IL-23 p19
T2 sequence (looked up) 1: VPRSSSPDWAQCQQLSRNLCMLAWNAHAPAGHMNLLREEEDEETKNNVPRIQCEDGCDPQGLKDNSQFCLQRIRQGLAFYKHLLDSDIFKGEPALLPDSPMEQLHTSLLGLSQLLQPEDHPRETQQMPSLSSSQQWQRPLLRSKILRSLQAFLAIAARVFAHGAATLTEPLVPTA
T2 sequence (looked up) 2: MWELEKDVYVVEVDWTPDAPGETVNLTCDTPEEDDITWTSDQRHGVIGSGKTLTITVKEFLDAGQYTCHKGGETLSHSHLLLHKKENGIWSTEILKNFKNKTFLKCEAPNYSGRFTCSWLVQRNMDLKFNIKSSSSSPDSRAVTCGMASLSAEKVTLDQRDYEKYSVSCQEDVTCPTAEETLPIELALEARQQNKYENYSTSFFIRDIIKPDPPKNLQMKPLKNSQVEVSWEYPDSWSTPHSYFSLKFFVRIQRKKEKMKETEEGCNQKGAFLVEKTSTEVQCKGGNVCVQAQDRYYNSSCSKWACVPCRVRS

[3] = biological target: T1, human IL-23 (Sino Biological, …); experiment: ELISA, sample coated, IL-23 titrated, anti-His-HRP
Procedure: (§1) The specific procedures are as follows:
The test sample was diluted to 2 μg/mL with a PBS (BasalMedia, B320) buffer at pH 7.4 and added to a 96-well microplate (Coming, 3590) at 100 μL/well. The plate was incubated at 4° C. overnight. After the liquid was discarded, 5 % skim milk (BD, 232100) diluted with PBS was added at 300 μL/well for blocking, and the mixture was incubated at 37° C. for 2 h. After the blocking was completed, the blocking solution was discarded, and the plate was washed 3 times with a PBST buffer (pH 7.4, PBS containing 0.1 % tween-20). […] After the incubation, the plate was washed 3 times with PBST. […] After the plate was washed 3 times with PBST, a TMB chromogenic substrate (KPL, 5120-0077) was added at 100 μL/well, and the mixture was incubated at room temperature for 10⁻¹⁵ min, and then 1 M H₂SO₄ was added at 50 μL/well to terminate the reaction. The absorbance values at 450 nm were taken using a microplate reader. The binding curves of antibodies to antigens were fitted using software, and the EC₅₀ values were calculated.

[4] = biological target: cynomolgus monkey IL-23 (Acro Biosystems, ILB-CM52W8) (cynomolgus monkey, UniProt H6WS56 20-189); experiment: SPR (Biacore), Protein A capture of sample, 1:1 model
Procedure: (§2) A certain amount of test sample was subjected to affinity capture by a biosensor chip Protein A (GE, 29127556), and then antigens at a series of concentration gradients were allowed to flow on the surface of the chip. The reaction signals were detected in real time by using Biacore (GE, 8 K) to obtain association and dissociation curves. After the dissociation was completed for each cycle, the biochip was washed and regenerated with a 10 mM glycine-hydrochloric acid solution at pH 1.5 (GE, BR-1003-54). Fitting was performed based on the experimental data using BlAevaluation version 4.1 software with a 1:1 model, and affinity values were obtained.

[5] = biological target: T1, human IL-23 (Sino Biological, …); experiment: as above
Procedure: as §2

[6] = biological target: T1, human IL-23 (Sino Biological, …); experiment: competition ELISA, blocks IL-23/IL-23R; IL-23R coated, biotin-IL-23 + sample gradient
Procedure: as §1
The receptor protein was diluted to 2 μg/mL with a PBS (BasalMedia, B320) buffer at pH 7.4 and added to a 96-well microplate (Corning, 3590) at 100 μL/well. The plate was incubated at 4° C. overnight. After the liquid was discarded, 1 % Casein blocking solution (Thermo, 37528) was added at 200 μL/well for blocking, and the plate was incubated at 37° C. for 2 h. After the blocking was complete, the blocking solution was discarded, and the plate was washed 3 times with a PBST buffer (pH 7.4 PBS containing 0.1 % tween-20) for later use. After the biotin-labeled ligand protein at a fixed concentration was mixed with an antibody or fusion protein diluted in a gradient, the mixture was pre-incubated at 37° C. for 30 min and then added to the blocked microplate. The plate was incubated at 37° C. for 1.5 h. After the incubation was complete, the plate was washed 3 times with PBST. Streptavidin-HRP (Invitrogen, 434323, diluted at 1:4000) was added at 100 μL/well, and the plate was incubated at 37° C. for 1 h. The supernatant was removed. After the plate was washed 3 times with PBST, TMB chromogenic substrate (KPL, 5120-0077) was added at 100 μL/well, and the plate was incubated at room temperature for 10⁻¹⁵ min. 1 M H₂SO₄ was added at 50 μL/well to terminate the reaction. The absorbance values at 450 nm were taken using a microplate reader. Curves for the inhibition of binding of the ligands to the receptors were fitted using software, and the IC₅₀ values were calculated.

[7] = biological target: T1, human IL-23 (Sino Biological, …); experiment: cell-based or functional assay; remark: listed apart in the source
[8] = biological target: T3, IL-23 (R&D Systems, 1290-IL-010) (UniProt Q9NPF7 20-189; P29460 23-328); experiment: cell-based or functional assay
T3 sequence (looked up) 1: T1 sequence (looked up) 1
T3 sequence (looked up) 2: T1 sequence (looked up) 2

B1: Hu38-4 (antibody, human IgG1, kappa, L234A L235A, V domains shown)
VH: EFQLVQSGAEVKKPGASVKVSCKASGYTFTDHNMNWVRQAPGQRLEWMGVINPNYGTTTYNQKFKGRVTITVDTSASTAYMELSSLRSEDTAVYYCARRGFAYWGQGTLVTVSS
VL: DIVMTQTPLSLPVTPGEPASISCRSSKSLLYKDGKTYLNWFLQKPGQSPQLLIYLMQTRASGVPDRFSGSGSGTDLTLKISRVEAEDVGVYYCQQIAEYPFTFGSGTKLEIKR
notes: humanized mAb38, IgG1/kappa
Activity in inhibiting proliferation of BaF3-IL-23R cells (IC50, nM) [1]: 0.122 nM
binding result [2]: no binding
EC50 [3]: 1.88 nM
Kd [4]: 0.0768 nM
koff [4]: 3.09e-05 s⁻¹
kon [4]: 402000 M⁻¹ s⁻¹
Kd [5]: 0.196 nM
koff [5]: 6.92e-05 s⁻¹
kon [5]: 353000 M⁻¹ s⁻¹
IC50 [6]: 0.427 nM

B4: Ch38 (antibody, human IgG1, kappa, L234A L235A, V domains shown)
VH: EFQLQQSGPELVKPGASVKISCKASGYSFTDHNMNWVKQSNGKSLEWIGVINPNYGTTTYNQKFKGKATLTVDQSSSTAYMQLNILTSEDSAVYYCARRGFAYWGQGTLVTVSA
VL: DIVISQDELSNPVTSGESVSISCRSSKSLLYKDGKTYLNWFLQRPGQSPQLLIYLMSTRASGVSDRFSGSGSGTDLTLEISRVKAEDVGVYYCQQIAEYPFTFGSGTKLEIKR
notes: chimeric: murine variable regions on hIgG1/hkappa; also called chimeric antibody of mAb38
Activity in inhibiting proliferation of BaF3-IL-23R cells (IC50, nM) [7]: 0.222 nM
EC50 [3]: 1.83 nM
Kd [5]: 0.0901 nM
koff [5]: 5.65e-05 s⁻¹
kon [5]: 627000 M⁻¹ s⁻¹
IC50 [6]: 0.361 nM

Now those with a lower EC50 [3], led by results:

Activity in inhibiting proliferation of BaF3-IL-23R cells (IC50, nM) [7]: 0.178 nM
IC50 for inhibiting IL-17 secretion [8]: 0.0289 nM
binding result [2]: no binding
EC50 [3]: 1.22 nM
Kd [4]: 0.0857 nM
Kd [5]: 0.0149 nM
IC50 [6]: 0.488 nM
B3: Hu29-24 (antibody, human IgG1, kappa, L234A L235A)
heavy: not shown
light: DIVLTQSPDSLAVSLGQRATINCRASESVDYYGISSMHWFQQKPGQPPKLLIYRASNLESGIPARFSGSGSRTDFTLTISSLQAEDVAVYYCQQANKDPYTFGGGTKVEIKRTVAAPSVFIFPPSDEQLKSGTASVVCLLNNFYPREAKVQWKVDNALQSGNSQESVTEQDSKDSTYSLSSTLTLSKADYEKHKVYACEVTHQGLSSPVTKSFNRGEC
notes: humanized mAb29, IgG1/kappa

Activity in inhibiting proliferation of BaF3-IL-23R cells (IC50, nM) [7]: 0.194 nM
IC50 for inhibiting IL-17 secretion [8]: 0.0177 nM
binding result [2]: no binding
EC50 [3]: 1.11 nM
Kd [4]: 0.0708 nM
koff [4]: 0.000192 s⁻¹
kon [4]: 2.71e+06 M⁻¹ s⁻¹
Kd [5]: 0.0151 nM
koff [5]: 4.08e-05 s⁻¹
kon [5]: 2.71e+06 M⁻¹ s⁻¹
IC50 [6]: 0.478 nM
B2: Hu29-19 (antibody, human IgG1, kappa, L234A L235A, V domains shown)
VH: QVTLKESGPVLVKPTETLTLTCTVSGFSLTNYAISWVRQPPGKGLEWLGVIWTGGGTNYNSGIKSRLTISKDNSKSQVVLTMTNMDPVDTARYYCVREGDYGSYAGAMDYWGQGTTVTVSS
VL: DIVLTQSPDSLAVSLGERATINCRASESVDYYGISSMHWFQQKPGQPPKLLIYRASNLESGIPARFSGSGSRTDFTLTISSLQAEDVAVYYCQQANKDPYTFGGGTKVEIKR
notes: humanized mAb29, IgG1/kappa
